This is an account of results in patent publication US20080267976A1 (published 2008).

Broadly, the IC50 is the concentration needed to halve the response being measured.

In this assay the target is extracellular region of human V158 FcγRIIIa fused with glutathione S-Transferase (GST) (human;, UniProt P08637 17-208). Put plainly: competition AlphaScreen. On the technique in general: In Alpha technology, singlet oxygen from a donor bead excites a nearby acceptor bead.
Sequence of extracellular region of human V158 FcγRIIIa fused with glutathione S-Transferase (GST) (P08637 17-208 F176V): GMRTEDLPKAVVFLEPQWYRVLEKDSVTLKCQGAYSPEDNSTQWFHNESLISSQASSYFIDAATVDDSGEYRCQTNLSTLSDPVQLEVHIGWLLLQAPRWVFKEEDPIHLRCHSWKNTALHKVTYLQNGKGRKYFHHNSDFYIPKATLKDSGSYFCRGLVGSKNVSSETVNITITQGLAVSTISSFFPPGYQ

B1: H3.69_V2/L3.71 AC10 IgG(1/2) ELLGG antibody (XmAb2513) (antibody)
heavy: QVQLVQSGAEVKKPGASVKVSCKVSGYTFTDYYITWVRQAPGQALEWMGWIYPGSGNTKYSQKFQGRFVFSVDTSASTAYLQISSLKAEDTAVYYCANYGNYWFAYWGQGTLVTVSSASTKGPSVFPLAPSSKSTSGGTAALGCLVKDYFPEPVTVSWNSGALTSGVHTFPAVLQSSGLYSLSSVVTVPSSSLGTQTYICNVNHKPSNTKVDKKVEPKSCDKTHTCPPCPAPELLGGPDVFLFPPKPKDTLMISRTPEVTCVVVDVSHEDPEVQFNWYVDGVEVHNAKTKPREEQFNSTFRVVSVLTVVHQDWLNGKEYKCKVSNKALPAPEEKTISKTKGQPREPQVYTLPPSREEMTKNQVSLTCLVKGFYPSDIAVEWESNGQPENNYKTTPPMLDSDGSFFLYSKLTVDKSRWQQGNVFSCSVMHEALHNHYTQKSLSLSPGK
light: EIVLTQSPDSLAVSLGERATINCKASQSVDFDGDSYLNWYQQKPGQPPKVLIYAASTLQSGVPSRFSGSGSGTDFTLTINSLEAEDAATYYCQQSNEDPWTFGGGTKVEIKRTVAAPSVFIFPPSDEQLKSGTASVVCLLNNFYPREAKVQWKVDNALQSGNSQESVTEQDSKDSTYSLSSTLTLSKADYEKHKVYACEVTHQGLSSPVTKSFNRGEC
In the case of B1, the half-inhibitory concentration (IC50) turned out to be 38 nM.
